From publication doi:10.1101/2024.07.25.605091
Read-outs that look alike come from different tables or passages of the source. One block for each molecule: values may come before it.

How the values were obtained:
[1] = biological target: Macaca mulatta TLR7 extracellular domain (Macaca mulatta); experiment: cryo-EM structure
[2] = biological target: Macaca mulatta TLR7 extracellular domain (Macaca mulatta); experiment: cryo-EM structure; remark: listed apart in the source
[3] = biological target: T1, TLR8 extracellular domain (Homo sapiens, UniProt Q9NR97 27-827); experiment: SPR
T1 sequence: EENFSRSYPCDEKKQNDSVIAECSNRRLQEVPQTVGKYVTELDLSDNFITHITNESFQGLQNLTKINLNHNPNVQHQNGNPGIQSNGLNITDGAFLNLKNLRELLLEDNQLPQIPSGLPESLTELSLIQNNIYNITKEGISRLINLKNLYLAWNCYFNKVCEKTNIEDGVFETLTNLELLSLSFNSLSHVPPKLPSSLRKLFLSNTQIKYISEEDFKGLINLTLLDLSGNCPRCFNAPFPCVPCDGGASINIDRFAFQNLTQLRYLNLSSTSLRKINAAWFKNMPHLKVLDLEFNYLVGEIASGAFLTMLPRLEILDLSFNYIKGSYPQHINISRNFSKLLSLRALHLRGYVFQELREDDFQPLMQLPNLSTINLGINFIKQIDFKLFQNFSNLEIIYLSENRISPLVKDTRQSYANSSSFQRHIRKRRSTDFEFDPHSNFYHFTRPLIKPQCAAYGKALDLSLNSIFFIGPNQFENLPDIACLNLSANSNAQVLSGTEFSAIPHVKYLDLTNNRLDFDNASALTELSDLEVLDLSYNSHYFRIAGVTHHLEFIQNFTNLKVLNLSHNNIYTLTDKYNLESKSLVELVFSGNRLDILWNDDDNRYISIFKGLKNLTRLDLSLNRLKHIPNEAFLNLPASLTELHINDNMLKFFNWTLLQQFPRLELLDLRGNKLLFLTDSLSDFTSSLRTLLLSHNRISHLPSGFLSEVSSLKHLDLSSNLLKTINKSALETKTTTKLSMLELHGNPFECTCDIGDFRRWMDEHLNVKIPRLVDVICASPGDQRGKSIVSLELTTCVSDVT

[4] = biological target: T1, TLR8 extracellular domain; experiment: SPR; remark: listed apart in the source

stoichiometry N [1]: 2
stoichiometry N [2]: 2
Molecule: Macaca mulatta TLR7 extracellular domain (receptor)

Molecule: GAG (XNA, 2'-OMe at G1 and A2; DNA G3; phosphorothioate linkages, stereorandom) [GAG-v1 (mGmAdG)]
Kd [3]: 4 µM

Molecule: GCC (XNA, 2'-OMe at G1; DNA C2 and C3; phosphorothioate linkages, stereorandom) [GCC-v4 (mGdCdC)]
Kd [4]: 8 µM
